From publication PMC2174006

Target: Flag–Rab32 (human) (UniProt Q13637)
Experiment: co-IP

endogenous PKA holoenzyme, sequence (P13861 whole entry, one chain of several): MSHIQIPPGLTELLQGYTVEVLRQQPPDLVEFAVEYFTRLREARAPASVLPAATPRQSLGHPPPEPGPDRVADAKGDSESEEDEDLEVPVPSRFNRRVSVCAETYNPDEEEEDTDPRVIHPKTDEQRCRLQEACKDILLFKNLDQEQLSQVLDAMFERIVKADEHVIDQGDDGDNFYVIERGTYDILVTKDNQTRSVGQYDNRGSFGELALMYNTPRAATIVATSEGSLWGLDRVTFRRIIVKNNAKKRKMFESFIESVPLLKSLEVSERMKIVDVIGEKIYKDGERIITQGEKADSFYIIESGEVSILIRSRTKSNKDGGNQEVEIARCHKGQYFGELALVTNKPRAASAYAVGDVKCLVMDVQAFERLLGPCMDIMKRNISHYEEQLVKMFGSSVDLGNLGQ
Flag–Rab32 (human), sequence (Q13637 whole entry): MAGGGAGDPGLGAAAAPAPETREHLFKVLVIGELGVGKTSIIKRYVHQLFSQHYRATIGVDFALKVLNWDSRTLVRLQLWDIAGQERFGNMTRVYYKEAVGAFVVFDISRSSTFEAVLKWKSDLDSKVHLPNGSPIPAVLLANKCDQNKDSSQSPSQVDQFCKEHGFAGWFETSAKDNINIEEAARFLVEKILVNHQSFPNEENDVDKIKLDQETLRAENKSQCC

fold enrichment of PKA activity in the immune complexes: 7.1 fold
Substance: endogenous PKA holoenzyme (from UniProt P13861 1-404; P17612 1-351) (complex)
